Measured values as given in publication PMC5240642.

Target: FcγRIIIa F158 extracellular domain (UniProt P08637)
Assay: SPR

UniProt P08637, sequence (P08637 17-208): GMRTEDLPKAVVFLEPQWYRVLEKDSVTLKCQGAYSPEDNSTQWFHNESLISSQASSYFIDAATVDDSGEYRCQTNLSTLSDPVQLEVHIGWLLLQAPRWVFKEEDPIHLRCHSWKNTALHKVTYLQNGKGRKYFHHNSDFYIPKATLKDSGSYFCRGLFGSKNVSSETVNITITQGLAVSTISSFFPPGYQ

Row | Substance | Kd
1 | Humira® complexed with TNF homotrimer (2:1 molar ratio) (from UniProt P01375 77-233) | 6.9 nM
2 | MSB11022 complexed with TNF homotrimer (2:1 molar ratio) (from UniProt P01375 77-233) | 8 nM
